Source: PMC3170469

Tests used:
[1] = target: hydrogen peroxide treated recombinant human interferon beta-1a (human) (UniProt P01574); assay: SEC
[2] = target: metal-catalyzed oxidized recombinant human interferon beta-1a (human) (UniProt P01574); assay: SEC

| oligomer fraction (%) [1] [%] | oligomer fraction (%) [2] [%] | Substance |
| --- | --- | --- |
| 7 | – | hydrogen peroxide treated recombinant human interferon beta-1a (from UniProt P01574 22-187) (natural protein) |
| – | 68 | metal-catalyzed oxidized recombinant human interferon beta-1a (from UniProt P01574 22-187) (natural protein) |
